Laboratory results from patent US20240288416.

What was measured:
[1] = target: green fluorescent protein (GFP) carrying an ssrA tag at the C-terminus
[2] = target: T1, substrate 1 (S1)
T1 chain: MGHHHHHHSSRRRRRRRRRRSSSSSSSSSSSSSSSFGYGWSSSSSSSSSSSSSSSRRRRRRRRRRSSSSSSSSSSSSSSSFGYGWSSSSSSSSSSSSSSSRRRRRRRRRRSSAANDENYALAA

B1: Valosin-containing protein-like ATPase of Thermoplasma acidophilum (protein)
chain: MESNNGIILRVAEANSTDPGMSRVRLDESSRRLLDAEIGDVVEIEKVRKTVGRVYRARPEDENKGIVRIDSVMRNNCGASIGDKVKVRKVRTEIAKKVTLAPIIRKDQRLKFGEGIEEYVQRALIRRPMLEQDNISVPGLTLAGQTGLLFKVVKTLPSKVPVEIGEETKIEIREEPASEVLEEVSRISYEDIGGLSEQLGKIREMIELPLKHPELFERLGITPPKGVILYGPPGTGKTLIARAVANESGANFLSINGPEIMSKYYGQSEQKLREIFSKAEETAPSIIFIDEIDSIAPKREEVQGEVERRVVAQLLTLMDGMKERGHVIVIGATNRIDAIDPALRRPGRFDREIEIGVPDRNGRKEILMIHTRNMPLGMSEEEKNKFLEEMADYTYGFVGADLAALVRESAMNALRRYLPEIDLDKPIPTEILEKMVVTEDDFKNALKSIEPSSLREVMVEVPNVHWDDIGGLEDVKREIKETVELPLLKPDVFKRLGIRPSKGFLLYGPPGVGKTLLAKAVATESNANFISIKGPEVLSKWVGESEKAIREIFKKAKQVAPAIVFLDEIDSIAPRRGTTSDSGVTERIVNQLLTSLDGIEVMNGVVVIGATNRPDIMDPALLRAGRFDKLIYIPPPDKEARLSILKVHTKNMPLAPDVDLNDIAQRTEGYVGADLENLCREAGMNAYRENPDATSVSQKNFLDALKTIRPSVDEEVIKFYRTLSETMSKSVSERRKQLQDQGLYL
average dwell time of GFP blockades at 6.0 mM ATP [1]: decreased 10-fold to 2.4±1.7 ms | average dwell time of current blockades (inactive proteasome-nanopore, VAT, ATP 2.0 mM) [1]: average dwell time is 22.1±20.2 ms | Ires % during VAT-assisted translocation through the inactive proteasome-nanopore (VAT 20.0 µM, ATP 2.0 mM) [2]: Ires %=83.81±0.11 | average dwell time of VAT-assisted translocation events (inactive proteasome-nanopore, ATP 2.0 mM) [2]: average dwell time is 5.8±3.9 ms
